Measurements taken from patent US20080070298, “Promoter of Synoviolin Gene” (published 2008).

How the values were obtained:
Details in all cases: label: 32P
GABPα = biological target: T1, GABPα (UniProt Q00422 Q00422:1-454); experiment: EMSA; in vitro translated; supershift
T1 sequence: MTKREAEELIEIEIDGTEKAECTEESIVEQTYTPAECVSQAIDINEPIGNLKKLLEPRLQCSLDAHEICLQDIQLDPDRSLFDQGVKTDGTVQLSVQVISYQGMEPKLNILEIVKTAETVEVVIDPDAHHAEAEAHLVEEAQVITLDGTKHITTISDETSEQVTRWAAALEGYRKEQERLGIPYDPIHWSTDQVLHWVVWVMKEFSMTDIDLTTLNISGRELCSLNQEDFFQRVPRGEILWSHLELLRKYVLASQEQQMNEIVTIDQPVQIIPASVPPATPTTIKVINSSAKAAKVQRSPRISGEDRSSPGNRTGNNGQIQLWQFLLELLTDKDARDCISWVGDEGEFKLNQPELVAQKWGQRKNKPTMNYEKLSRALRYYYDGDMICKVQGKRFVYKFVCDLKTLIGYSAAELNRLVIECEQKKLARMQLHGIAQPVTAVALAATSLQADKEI
Procedure: (§1) Next, T4 […] kinase, buffer andy γ³²P were mixed and the mixture was reacted for 30 minutes at room temperature. The reaction solution was passed through a Micro Spin G-25 column (Amersham Pharmacia Biotech), and the collected column fraction was centrifuged to obtain labeled probes. Those having radioactivity of 30000 cpm or more per 1 µl were used.
(§2) 10 μg of protein was mixed with reaction buffer and probe, and reacted for 30 minutes at room temperature. For purposes of supershift, they were reacted for 1 hour at 4° C. before being reacted with the probe. The reaction solution was electrophoresed for about 3 hours at 100v, 50 mA in non-denatured gel. The gel was dried, and analyzed by autoradiography using a Fujii BAS2000.

Fli-1 = biological target: T2, Fli-1 (UniProt P26323 P26323:1-452); experiment: EMSA; in vitro translated; supershift
T2 sequence: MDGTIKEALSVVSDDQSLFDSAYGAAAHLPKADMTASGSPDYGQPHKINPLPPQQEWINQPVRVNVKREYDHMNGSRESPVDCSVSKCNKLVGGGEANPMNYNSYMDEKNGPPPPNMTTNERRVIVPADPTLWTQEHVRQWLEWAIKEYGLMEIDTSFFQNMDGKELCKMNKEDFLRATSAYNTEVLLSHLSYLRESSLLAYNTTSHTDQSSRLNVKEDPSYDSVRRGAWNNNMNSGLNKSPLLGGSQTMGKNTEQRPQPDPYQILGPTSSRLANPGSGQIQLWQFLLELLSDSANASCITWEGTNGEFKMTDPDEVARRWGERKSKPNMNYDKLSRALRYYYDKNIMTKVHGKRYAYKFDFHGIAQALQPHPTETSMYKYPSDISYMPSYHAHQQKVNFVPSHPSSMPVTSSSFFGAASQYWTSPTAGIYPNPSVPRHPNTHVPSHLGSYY
Procedure: as §1, §2

Ets1 = biological target: T3, Ets1 (UniProt P27577 P27577:1-440); experiment: EMSA; in vitro translated; supershift
T3 sequence: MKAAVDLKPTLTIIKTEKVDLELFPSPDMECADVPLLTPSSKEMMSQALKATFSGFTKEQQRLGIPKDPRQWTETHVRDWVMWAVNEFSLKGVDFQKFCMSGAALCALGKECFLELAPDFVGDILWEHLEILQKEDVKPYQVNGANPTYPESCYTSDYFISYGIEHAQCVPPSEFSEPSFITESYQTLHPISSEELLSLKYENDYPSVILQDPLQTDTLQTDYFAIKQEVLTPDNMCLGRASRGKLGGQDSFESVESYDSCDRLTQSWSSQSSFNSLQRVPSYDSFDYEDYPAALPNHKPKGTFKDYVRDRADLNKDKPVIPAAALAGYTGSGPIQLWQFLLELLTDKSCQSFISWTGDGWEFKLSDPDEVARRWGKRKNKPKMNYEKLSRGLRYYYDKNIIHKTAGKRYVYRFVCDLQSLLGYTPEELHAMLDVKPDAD
Procedure: as §1, §2

GABPα/GABPβ complex = GABPα/GABPβ complex (UniProt Q00422;Q00420 Q00422:1-454,Q00420:2-383); experiment: EMSA; new complex bands on adding GABPβ to GABPα; GABPβ antibody interferes with complex a
Sequence of GABPα/GABPβ complex (Q00420 2-383, one chain of several): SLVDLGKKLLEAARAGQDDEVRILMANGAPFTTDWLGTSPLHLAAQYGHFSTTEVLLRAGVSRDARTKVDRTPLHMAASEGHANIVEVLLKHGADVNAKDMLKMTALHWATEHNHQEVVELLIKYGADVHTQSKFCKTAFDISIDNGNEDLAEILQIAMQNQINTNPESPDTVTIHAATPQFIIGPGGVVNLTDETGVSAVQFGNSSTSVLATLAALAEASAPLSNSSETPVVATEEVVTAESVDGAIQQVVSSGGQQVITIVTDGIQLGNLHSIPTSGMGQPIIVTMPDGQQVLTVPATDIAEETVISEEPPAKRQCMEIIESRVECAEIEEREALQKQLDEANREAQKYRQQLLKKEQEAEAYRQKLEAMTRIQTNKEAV
Procedure: as §1, §2

Measured: binding result

B1: EBS WT (-85 to -70) (dsDNA)
DNA 1: GCGCCGCCGGAAGTGA
DNA 2: TCACTTCCGGCGGCGC
binds: all assays above
